Data set [1] relates to D-galactosamine-sensitized Balb/c mice. The experiment in a line: Histology of organs of D-galactosamine-sensitized Balb/c mice. The class given is in vivo. As to conditions: 1 mg/mouse i.p. plus D-gal, 7 hours. As for the experimental part: To further assess the lethality of the HMGB1 B box protein in vivo the HMGB1 B box was again administered to D-galactosamine-sensitized Balb/c mice. Mice (3 per group) received D-gal (20 mg/mouse) plus B box or vector (1 mg/mouse) intraperitoneally for 7 hours and were then sacrificed by decapitation. Blood was collected, and organs (liver, heart, kidney and lung) were harvested and fixed in 10% formaldehyde. Tissue sections were prepared with hematoxylin and eosin staining for histological evaluation (Criterion Inc., Vancouver, Canada). […] In FIG. 4J, hepatocyte dropouts are seen surrounded by accumulated polymorphonuclear leukocytes. The arrows in FIG. 4J point to the sites of polymorphonuclear accumulation (dotted) or apoptotic hepatocytes (solid).

The test system of data set [2] is RAW 264.7 cells. The experiment in a line: TNF mRNA expression in RAW 264.7 cells (RNase protection assay). The class given is cell-based, murine. As to conditions: 10 μg/ml. As for the experimental part:
The kinetics of B box-induced TNF release was also examined. TNF release and TNF mRNA expression was measured in RAW 264.7 cells induced by B box polypeptide or GST tag polypeptide only used as a control (vector) (10 μg/ml) for 0 to 48 hours. Supernatants were analyzed for TNF protein levels by an L929 cytotoxicity assay (N=3-5) as described herein. For mRNA measurement, cells were plated in 100 mm plate and treated in Opti-MEM I medium containing B box polypeptide or the vector alone for 0, 4, 8, or 24 hours, as indicated in FIG. 2D. The vector only sample was assayed at the 4 hour time point. Cells were scraped off the plate and total RNA was isolated by RNAzol B method in accordance with the manufacturer's instructions (Tel-Test “B”, Inc., Friendswood, Tex.). TNF (287 bp) was measured by RNase protection assay (Ambion, Austin, Tex.). Equal loading and the integrity of RNA was verified by ethidium bromide staining of the RNA sample on agarose-formaldehyde gel. […] TNF mRNA expression was maximal at 4 hours and decreased at 8 and 24 hours. […] A similar study was carried out measuring TNF protein released from RAW 264.7 cells 0, 4, 8, 24, 32 or 48 hours after administration of B box or vector only (GST tag), using the L929 cytotoxicity assay described herein. […] Data are representative of three separate experiments.

In data set [3] the test system is RAW 264.7 cells. The experiment in a line: IL-1β release from RAW 264.7 cells (ELISA). The format is cell-based, murine. As to conditions: B box 0-10 μg/ml, 8 hours (FIG. 2B). As for the experimental part:
Murine macrophage-like RAW 264.7 cells (American Type Culture Collection, Rockville, Md.) were cultured in RPMI 1640 medium (Life Technologies, Grand Island N.Y.) supplemented with 10% fetal bovine serum (Gemini, Catabasas, Calif.), penicillin and streptomycin (Life Technologies) and were used at 90% confluence in serum-free Opti-MEM I medium (Life Technologies, Grand Island, N.Y.). […] Polymyxin B was not used in experiments of synthetic peptide studies.
To further examine the effect of HMGB1 B box on cytokine production, varying amounts of HMGB1 B box were evaluated for the effects on TNF, IL-1B, and IL-6 production in murine macrophage-like RAW 264.7 cells. Conditioned media were harvested and measured for TNF, IL-1β and IL-6 levels. TNF levels were measured as described herein, and IL-1β and IL-6 levels were measured using the mouse IL-1β and IL-6 enzyme-linked immunosorbent assay (ELISA) kits (R&D System Inc., Minneapolis, 1) and N>5 for all experiments.
In general terms: In an ELISA, binding on a coated surface is turned into a signal by an enzyme label.

The test system of the next data set is C3H/HeJ mice. The experiment in a line: Lethality and histology in C3H/HeJ mice. The class given is in vivo. An excerpt:
Male 6-8 week old Balb/c and C3H/HeJ mice were purchased from Harlen Sprague-Dawley (Indianapolis, Ind.) and were allowed to acclimate for 7 days before use in experiments. All animals were housed in the North Shore University Hospital Animal Facility under standard temperature, and a light and dark cycle.

B1: B box: Recombinant GST-system human HMGB1 mutant containing only the B box, 74 amino acids, SEQ ID NO: 20 (protein, listed as Homo sapiens)
chain: FKDPNAPKRLPSAFFLFCSEYRPKIKGEHPGLSIGDVAKKLGEMWNNTAADDKQPYEKKAAKLKEKYEKDIAAY
modifications: GST system
For B1, in data set [1], the histology of heart result was “some ischemic changes and loss of cross striation in myocardial fibers”; the “histology of kidneys and lungs” value is listed as “no abnormality”; the histology of liver result is reported as “active hepatitis”. In the data set on RAW 264.7 cells [2], the “time of maximal TNF mRNA expression” value stood at 4 h. Also, in the data set with RAW 264.7 cells [2] (0, 4, 8 or 24 hours (vector at 4 hours) (FIG. 2D)), the “TNF mRNA expression” value was “increased significantly”. Besides, the “IL-1β release, dose dependence” value with RAW 264.7 cells [3] is listed as “addition of 1 μg/ml or 10 μg/ml of B box resulted in increased release”. Besides, in the data set with RAW 264.7 cells [3] (listed as HMGB1 B box), the “IL-1β release, dose dependence” value is recorded as “dose-dependently stimulated release”. For the same molecule, in the data set with C3H/HeJ mice (8 hours after administration), the histology of heart result was “evidence of ischemia with loss of cross striation”; the histology of liver entry is reported as “mild acute inflammatory responses”; the “histology of lung and kidney” value is listed as “no abnormal morphologic changes”. The lethality result in the data set with C3H/HeJ mice (C3H/HeJ mice (do not respond to endotoxin)) is recorded as “lethal”.

The values above are taken from patent publication US20060121047A1, “Use of hmgb polypetides for increasing immune responses” (priority 2002, published 2006).
